According to article PMC8558838 (The Journal of Experimental Medicine, 2021):

B3: human LIGHT extracellular domain (L83-V240) (ligand, UniProt O43557 83-240, looked up)
chain: LIQERRSHEVNPAAHLTGANSSLTGSGGPLLWETQLGLAFLRGLSYHDGALVVTKAGYYYIYSKVQLGGVGCPLGLASTITHGLYKRTPRYPEELELLVSQQSPCGRATSSSRVWWDSSFLGGVVHLEAGEKVVVRVLDERLVRLRDGTRSYFGAFMV
notes: human LIGHT (TNFSF14), extracellular domain, residues L83-V240; Homotrimer; The His tag is used for detection in the flow cytometry staining; also called hLIGHT; TNFSF14; not shown: His6 (HHHHHHG), N-terminal, kept

Assays:
[1] = biological target: mouse CD160 (30I-154H) with C-terminal …, biotinylated (UniProt O88875); assay: flow cytometry, cell–protein method
[2] = biological target: full-length mouse BTLA-EGFP, on cells (UniProt Q7TSA3); assay: flow cytometry, cell–cell method
[3] = biological target: full-length mouse LIGHT, on cells (mLIGHT-IRES-EGFP) (UniProt Q9QYH9); assay: flow cytometry, cell–cell method
[4] = biological target: mBTLA protein; assay: flow cytometry, cell–protein method; details: parent: est. 1.0; read off a plot
[5] = biological target: human LIGHT extracellular domain (L83-V240) (human) (UniProt O43557); assay: crystal structure; single-chain hCD160–hHVEM and hLIGHT mixed in a 1:1 molar ratio, 5 mg/ml in 10 mM Hepes pH 7.0, 150 mM NaCl; crystallised in 12% PEG3350, 4% tacsimate; 3.5 Å
[6] = biological target: B3; assay: SEC; analytical SEC; equal molar equivalents of hLIGHT and hHVEM monomers mixed; details: both partners purified
[7] = biological target: mHVEM^−LIGHT (H86D-L90A) soluble protein, mHVEM-hIgG1 format (mouse, UniProt Q80WM9 39-206, H86D | L90A); assay: BLI
[8] = biological target: mHVEM^−BT/160 (G72R-V74A) soluble protein, mHVEM-hIgG1 format (mouse, UniProt Q80WM9 39-206, G72R | V74A); assay: BLI
[9] = biological target: T1, mHVEM (Q39-Q206)-human IgG1-hexa-His, WT (mouse, UniProt Q80WM9 39-206); assay: BLI
T1 chain: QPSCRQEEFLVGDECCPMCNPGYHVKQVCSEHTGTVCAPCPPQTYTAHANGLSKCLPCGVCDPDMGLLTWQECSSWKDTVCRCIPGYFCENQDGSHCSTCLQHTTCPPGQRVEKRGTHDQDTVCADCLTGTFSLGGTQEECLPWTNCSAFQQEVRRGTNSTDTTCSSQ

[10] = biological target: T2, mHVEM^−BT/160 (G72R-V74A) soluble protein, mHVEM-hIgG1 format (mouse, UniProt Q80WM9 39-206, G72R | V74A); assay: BLI; Octet; mHVEM-hIgG1 immobilised on the sensors, challenged with different concentrations of mLIGHT, mBTLA or mCD160; steady-state fit for mLIGHT, 1:1 Langmuir model for mBTLA and mCD160; details: both partners purified
T2 construct: mouse HVEM (TNFRSF14) residues Q39-Q206 with G72R and V74A; also called mHVEM G72R-V74A double mutein; source: expressed in soluble form (Expi293, purified on Ni resin, as told for mHVEM-hIgG1); not shown: Fc (human IgG1), C-terminal, kept
T2 sequence (looked up): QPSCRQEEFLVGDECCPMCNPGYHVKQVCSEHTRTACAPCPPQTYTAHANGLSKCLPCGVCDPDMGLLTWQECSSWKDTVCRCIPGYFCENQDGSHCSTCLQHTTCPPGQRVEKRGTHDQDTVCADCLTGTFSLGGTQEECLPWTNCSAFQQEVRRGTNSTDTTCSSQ

[11] = biological target: T3, mHVEM (Q39-Q206)-human IgG1-hexa-His, WT (mouse, UniProt Q80WM9 39-206); assay: as above; details: both partners purified
T3 construct: mouse HVEM (TNFRSF14) residues Q39-Q206; pcDNA 3.3; also called mHVEM-hIgG1; mHVEM^WT; source: Expi293, transfected, purified (Ni resin); not shown: Fc (human IgG1), C-terminal, kept
T3 sequence (looked up): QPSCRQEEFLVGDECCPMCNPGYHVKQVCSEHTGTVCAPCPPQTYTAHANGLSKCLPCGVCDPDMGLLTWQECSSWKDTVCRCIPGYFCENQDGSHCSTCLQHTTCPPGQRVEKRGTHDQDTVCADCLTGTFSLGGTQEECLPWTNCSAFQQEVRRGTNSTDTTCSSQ

[12] = biological target: the molecule itself; assay: crystal structure; hHVEM and hLIGHT mixed in a 1:1 molar ratio, 3 mg/ml in 10 mM Hepes pH 7.0, 150 mM NaCl; crystallised in 0.1 M Bis-Tris pH 5.5, 0.2 M MgCl2, 9% PEG3350; 2.30 Å
[13] = biological target: T4, mHVEM^−LIGHT (H86D-L90A) soluble protein, mHVEM-hIgG1 format (mouse, UniProt Q80WM9 39-206, H86D | L90A); assay: BLI; Octet; mHVEM-hIgG1 immobilised on the sensors, challenged with different concentrations of mLIGHT, mBTLA or mCD160; steady-state fit for mLIGHT, 1:1 Langmuir model for mBTLA and mCD160; details: both partners purified
T4 construct: mouse HVEM (TNFRSF14) residues Q39-Q206 with H86D and L90A; also called mHVEM H86D-L90A double mutein; source: expressed in soluble form (Expi293, purified on Ni resin, as told for mHVEM-hIgG1); not shown: Fc (human IgG1), C-terminal, kept
T4 sequence (looked up): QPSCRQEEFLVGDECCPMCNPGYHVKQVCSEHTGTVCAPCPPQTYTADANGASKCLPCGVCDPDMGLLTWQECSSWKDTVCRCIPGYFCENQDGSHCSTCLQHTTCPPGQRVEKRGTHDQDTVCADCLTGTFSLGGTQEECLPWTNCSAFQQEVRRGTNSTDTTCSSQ

Molecule “full-length WT mouse HVEM-mCherry, on cells (from UniProt Q80WM9) A76A” has a ratio to parent [1] of 1, a ratio to parent [2] of 1.1 and a ratio to parent [3] of 1.2.

“full-length WT mouse HVEM-mCherry, on cells (from UniProt Q80WM9) H86A; L90A” showed a ratio to parent [4] of 0.78.

“full-length WT mouse HVEM-mCherry, on cells (from UniProt Q80WM9) H86R; L90A” was tested, and the ratio to parent [4] was 0.66.

“full-length WT mouse HVEM-mCherry, on cells (from UniProt Q80WM9) G72R; V74A” was tested, and the ratio to parent [4] was 0.01.

Work on “full-length WT mouse HVEM-mCherry, on cells (from UniProt Q80WM9) G72D; V74R” yielded a ratio to parent [4] of 0.01.

“full-length WT mouse HVEM-mCherry, on cells (from UniProt Q80WM9) H86D; L90D” was tested, and the ratio to parent [4] was 0.82.

“single-chain hCD160–hHVEM fusion protein” gave a stoichiometry N (hCD160–hHVEM per hLIGHT homotrimer) [5] of 3.

“full-length WT mouse HVEM-mCherry, on cells (from UniProt Q80WM9) G72D; V74D” was tested, and the ratio to parent [4] was 0.01.

In the case of “full-length WT mouse HVEM-mCherry, on cells (from UniProt Q80WM9) H86D; L90R”, the ratio to parent [4] is reported as 0.63.

With “full-length WT mouse HVEM-mCherry, on cells (from UniProt Q80WM9) G72D; V74A” the ratio to parent [4] was 0.02.

For “full-length WT mouse HVEM-mCherry, on cells (from UniProt Q80WM9) G72A; V74D”, the ratio to parent [4] was 0.01.

B1: human HVEM extracellular domain (L39-C162) (domain or fragment, UniProt Q92956 39-162, looked up)
chain: LPSCKEDEYPVGSECCPKCSPGYRVKEACGELTGTVCEPCPPGTYIAHLNGLSKCLQCQMCDPAMGLRASRNCSRTENAVCGCSPGHFCIVQDGDHCAACRAYATSSPGQRVQKGGTESQDTLC
notes: human HVEM (TNFRSF14), extracellular domain, residues L39-C162; positions numbered with initiation codon = 1; Cloned into pMT/BiP/V5-His for His-tag fusion protein production; also called hHVEM; TNFRSF14
B1 was tested, and the “stoichiometry N” value [6] was 3 hHVEM per hLIGHT homotrimer.

B2: single chain homotrimeric mLIGHT extracellular domain (G73-V239) connected by two (GGGGS)4 linkers (ligand, mouse)
chain: GGKGSWEKLIQDQRSHQANPAAHLTGANASLIGIGGPLLWETRLGLAFLRGLTYHDGALVTMEPGYYYVYSKVQLSGVGCPQGLANGLPITHGLYKRTSRYPKELELLVSRRSPCGRANSSRVWWDSSFLGGVVHLEAGEEVVVRVPGNRLVRPRDGTRSYFGAFMVGGGGSGGGGSGGGGSGGGGSGGKGSWEKLIQDQRSHQANPAAHLTGANASLIGIGGPLLWETRLGLAFLRGLTYHDGALVTMEPGYYYVYSKVQLSGVGCPQGLANGLPITHGLYKRTSRYPKELELLVSRRSPCGRANSSRVWWDSSFLGGVVHLEAGEEVVVRVPGNRLVRPRDGTRSYFGAFMVGGGGSGGGGSGGGGSGGGGSGGKGSWEKLIQDQRSHQANPAAHLTGANASLIGIGGPLLWETRLGLAFLRGLTYHDGALVTMEPGYYYVYSKVQLSGVGCPQGLANGLPITHGLYKRTSRYPKELELLVSRRSPCGRANSSRVWWDSSFLGGVVHLEAGEEVVVRVPGNRLVRPRDGTRSYFGAFMV
notes: mouse LIGHT (TNFSF14) extracellular domain G73-V239, first copy; linker, printed as (GGGGS)4; mouse LIGHT (TNFSF14) extracellular domain G73-V239, second copy; mouse LIGHT (TNFSF14) extracellular domain G73-V239, third copy; Three copies of the extracellular domain on one chain; source: Expi293, transfected, purified (Ni resin, SEC)
B2 showed a Kd [7] of 31.7 µM, a Kd [8] of 0.0293 µM and a Kd [9] of 0.0162 µM. B2: binds [10]; binds [11].

B3 was tested, and the “stoichiometry N” value [12] was 3.

B4: mouse CD160 (30I-154H) with C-terminal …, biotinylated (ligand)
chain: IHVTSSASQKGGRLDLTCTLWHKKDEAEGLILFWCKDNPWNCSPETNLEQLRVKRDPETDGITEKSSQLVFTIEQATPSDSGTYQCCARSQKPEIYIHGHFLSVLVTGNHTEIRQRQRSHPDFSH
modifications: biotin
In the case of B4, the Kd [7] is reported as 33.5 µM and the Kd [9] is reported as 11.6 µM.

B5: mouse CD160 (30I-154H) with C-terminal [residues removed], biotinylated (ligand, UniProt O88875 30-154, looked up)
chain: IHVTSSASQKGGRLDLTCTLWHKKDEAEGLILFWCKDNPWNCSPETNLEQLRVKRDPETDGITEKSSQLVFTIEQATPSDSGTYQCCARSQKPEIYIHGHFLSVLVTGNHTEIRQRQRSHPDFSH
modifications: biotin
notes: mouse CD160 residues 30I-154H; also called mCD160; mCD160-biotin
B5 was tested, and the “fold reduction of binding against WT mHVEM” value [13] was roughly 3 fold and the binding result [11] was “binds”.

B6: mouse BTLA, soluble protein used as analyte in the Octet experiment (ligand, UniProt Q7TSA3 30-183, looked up)
chain: EKATKRNDEECPVQLTITRNSKQSARTGELFKIQCPVKYCVHRPNVTWCKHNGTICVPLEVSPQLYTSWEENQSVPVFVLHFKPIHLSDNGSYSCSTNFNSQVINSHSVTIHVRERTQNSSEHPLITVSDIPDATNASGPSTMEERPGRTWLLY
notes: mouse BTLA (CD272), soluble form; also called mBTLA
In the case of B6, the Kd [7] is reported as 5.3 µM, the Kd [9] is reported as 1.1 µM and the “fold reduction of binding against WT mHVEM” value [13] is reported as roughly 5 fold.
